The values below come from patent US12702692B2, “Therapeutic use of calcium-activated chloride channel peptide activator” (CENTRE NATIONAL DE LA RECHERCHE SCIENTIFIQUE, priority 2020, dated 2026).

For the assay, the target named is T1, TMEM16A (Mus musculus, UniProt Q8BHY3).
T1 construct: expressed in transfected cells; host or cells: HEK293T
T1 sequence (Q8BHY3 1-960): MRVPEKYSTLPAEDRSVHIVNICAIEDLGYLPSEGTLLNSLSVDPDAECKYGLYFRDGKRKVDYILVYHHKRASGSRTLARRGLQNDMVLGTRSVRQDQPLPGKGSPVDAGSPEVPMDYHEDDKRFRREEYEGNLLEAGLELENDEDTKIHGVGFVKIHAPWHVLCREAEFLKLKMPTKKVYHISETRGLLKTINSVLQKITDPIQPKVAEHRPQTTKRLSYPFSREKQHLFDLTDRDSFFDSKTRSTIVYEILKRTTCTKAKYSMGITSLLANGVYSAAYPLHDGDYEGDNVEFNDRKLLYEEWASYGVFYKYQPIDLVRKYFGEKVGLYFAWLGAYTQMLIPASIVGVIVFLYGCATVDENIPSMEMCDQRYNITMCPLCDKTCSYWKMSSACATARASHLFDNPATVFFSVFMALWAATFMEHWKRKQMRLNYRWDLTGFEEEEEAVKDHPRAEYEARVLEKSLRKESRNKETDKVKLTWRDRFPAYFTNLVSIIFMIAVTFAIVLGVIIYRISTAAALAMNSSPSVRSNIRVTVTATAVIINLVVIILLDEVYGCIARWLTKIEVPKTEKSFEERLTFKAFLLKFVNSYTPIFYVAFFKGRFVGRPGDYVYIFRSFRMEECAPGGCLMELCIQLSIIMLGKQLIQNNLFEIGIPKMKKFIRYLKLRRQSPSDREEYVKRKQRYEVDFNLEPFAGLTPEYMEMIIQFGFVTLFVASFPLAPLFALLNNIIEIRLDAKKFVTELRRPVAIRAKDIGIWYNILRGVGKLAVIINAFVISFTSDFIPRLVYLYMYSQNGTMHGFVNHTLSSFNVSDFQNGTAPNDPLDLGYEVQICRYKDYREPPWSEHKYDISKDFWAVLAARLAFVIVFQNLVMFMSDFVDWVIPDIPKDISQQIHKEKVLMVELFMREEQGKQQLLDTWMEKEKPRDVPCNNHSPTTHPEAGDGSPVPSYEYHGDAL
The assay can be described thus: Whole-cell patch-clamp of HEK293T cells expressing TMEM16A. Type of assay: cell-based. As for the experimental part: mTMEM16A (kindly provided by Dr Lily Yeh Jan) and hKCNE1 cDNA were subcloned in pIRES2eGFP, pXOOM, pcDNA3.1, pCDNA3.1-GFP and pCMV-HA vectors. Truncations and mutations on KCNE1 were generated by PCR. For SiMPull experiments, HA-tags were fused to the N-terminus of sequences, whereas GFP-tags were fused to C-terminal part. HEK293T and PCT cells were transiently co-transfected using Lipofectamine 2000 or the calcium phosphate method with a total amount of 1 and 3.5 μg of DNA, respectively, and seeded on 18 mm diameter coverslips. HEK cells were maintained in DMEM with 5% FBS on poly-L-lysine-coated glass coverslips in 12 well plates. PCT cells from wild type and knock-out mice were microdissected as described previously and maintained in F12 (Gibco) on collagen-coated glass coverslips.
HEK293T and PCT cell electrophysiology was performed 24-48 h after transfection. For whole-cell patch-clamp experiments cells were recorded in a bath solution containing (in mM) 150 NaCl, 5 KCl, 2 CaCl2 and 10 HEPES, pH 7.4 and 0.05% BSA. The glass pipettes (2-5 MΩ of resistance) were filled with (in mM) 5 NaCl, 135 CsCl, 2 MgCl2, 5 EGTA, 10 HEPES, pH 7.3. Cells were recorded either after incubation of 30 min with the peptide or during perfusion with the peptide. Total calcium concentration was calculated with Maxchelator (maxchelator.standford.edu) for a temperature of 20° C. HEK293T and PCT cells were recorded at room temperature in voltage-clamp mode using an Axopatch 200A (Molecular Devices) amplifier. Signals were filtered at 10 kHz and digitalized at 20 kHz. Whole-cell currents were elicited by voltage-ramps (from −100 to +100 mV, 1 s) and I-V stimulation pulses (from −100 to +100 mV in 20 mV increments, 1 s each pulse), holding the cells at −80 mV. Current densities were measured at +100 mV. Cell recordings, data acquisition and analysis of electrophysiology experiments were performed using pClamp software (Molecular Devices).

For “LARRSPRSSDGKL (SEQ ID NO: 2) (amino acid residues between positions 30 to 42 of the human KCNE1 protein sequence) [N13ter]”, the “current density elicited by peptide at +100 mV” value (100 μM peptide, HEK293T cells expressing TMEM16A alone) worked out at 15.48±3.25 pA/pF. Where the note is “100 μM, HEK293T expressing TMEM16A and Xenopus oocytes (FIG. 9)”, the “potency on TMEM16A compared with rat N13 peptide” value is given as “more potent”. In addition, for the setting “HEK293T cells expressing TMEM16A alone, 100 μM for Nter13, S38G and rat peptides”, the “effect of peptide application on TMEM16A current” value was “induces TMEM16A current properties”.
